{"source": "patent US20260227403A1", "binders": {"B1": {"name": "ETV1 rabbit monoclonal antibody (29E4) (antibody, V domains shown)", "VH": "QELEESGGDLVKPGASLTLTCTASGFFFSAENHICWVRQAPGKGLEWIGCVYIGSYVGGSGDPYYASWAKGRFTISKTSSTTVTLQMSSLTAADTATYFCARDLGSLWGPGTLVTVSS", "VL": "DVVMTQTASSVSAAVGGTVTIACQSSQSVYDNNNLAWFQQKPGQPPKRLIYSASTLASGVSSRFKGSGYGTQFTLTISDVQCDDAATYYCVGAFSGYIFVFGGGTEVVVK"}}, "key": {"[1]": {"molecular_target": "peptides with further truncation from the N-terminus and C-terminus (beyond P40 and P38)", "experiment": "ELISA, 1 µg truncated peptide per well, 20 ng/mL mAb"}, "[2]": {"molecular_target": "peptide P40 and peptide P38", "experiment": "ELISA, 1 µg truncated peptide per well, 20 ng/mL mAb"}}, "data": [{"binder": "B1", "values": [{"measurement": "binding efficiency in comparison to the full-length immunogenic peptide P1 (%)", "setting": "[1]", "result": 75, "unit": "%"}, {"measurement": "binding efficiency in comparison to the full-length immunogenic peptide P1 (%)", "setting": "[2]", "result": "80 to 100", "unit": "%"}]}]}
